This passage reports Km and kcat results from paper PMC7386920, “Evolution of a plant gene cluster in Solanaceae and emergence of metabolic diversity” (eLife, 2020).

Usually Km stands for the substrate concentration at which the rate is half of its maximum. By kcat is commonly meant the number of substrate molecules converted per active site and unit of time at saturation.

Common to all, as to assay: purified protein
Holding throughout (conditions): fatty acid varied 0-500 uM, 5 mM ATP, 0.5 mM CoA, 10 mM MgCl2, 1 mM NADH, pH 7.5, 30 C

Substrate in data set [1]: CCCCCC(=O)O
The class given is biochemical, Solanum lycopersicum.

Substrate in data set [2]: CCCCCCC/C=C/C(=O)O
The class given is biochemical, Solanum lycopersicum.

Substrate in data set [3]: CC(C)CCCCCCC(=O)O
It is filed as biochemical, Solanum lycopersicum.

Substrate in data set [4]: CCCCCCCCCC(=O)O
The class given is biochemical, Solanum lycopersicum.

Substrate in data set [5]: CCCCCCCCCCCC(=O)O
The class given is biochemical, Solanum lycopersicum.

Substrate in data set [6]: CCCCCCCC(=O)O

B1: Sl-AACS1 (Solanum lycopersicum) (protein)
chain: MNKFFKTSNIALRFFNGSVQLPAPTHRVRQLCQLAGSIESTDESRKLLEGVVTSPANYVPLTPISYLERAADVFGDRTSVVFGSSVKYTWEETHSRCLKLASALIQLGISRGDVVATLAPNVPAMQELHFAVPMAGAVLCTLNTRLDSSMVAYLLKHSETKMIFVDQQFLQIAQQALSLLSKDKTIKPPILILIPESNDSSPPVSNIHEYENLLSSGSSNFTIRWPKSEFDPISINYTSGTTSSPKGVVYNHRGAYLNSISAFLCHGMALMPTYLWTLPMFHCNGWCMNWGVAALGGTNVCLRHVSAKDIFESISVNKVTHMSAAPIVLSMMANASPNDRKPLLHKVEIMTGGSPPPPQILSKMEQLGFGVSHGYGLTETYSGATTCLWKPEWDSLPLEERAALKSRQGVKVLCIERVDVRDPETMENVPADGKSIGEIVCRGNTVMSGYLKDVKSTEEAFKGGWFHTGDVAVKHPDGYIEIKDRLKDIIISGGENISTLEVEGVLHSHPAVVEAAVVARPDDHWGQTPCAFVKLKEGSEEITSDEIIKYCRDHLPHYMVPRAVVFQDLPTTSTGKVQKFILREKAKALASLFNTDRKV
notes: full-length ORF in pET28b, His-tagged (tag removal not mentioned), E. coli BL21 Rosetta, Ni-NTA purified
As for B1, the Michaelis constant (Km) in data set [1] was 214.8 ± 40 µM; in data set [2], 36.4 ± 4.5 µM; in data set [3], 82.1 ± 10.3 µM; in data set [4] it was 71.8 ± 9.6 µM; in data set [5] it was 68.1 ± 15.8 µM; in data set [6], 145.9 ± 10.4 µM. Moreover, the kcat was 0.23 ± 0.02 s⁻¹ in data set [1]; 0.0983 ± 0.0033 s⁻¹ in data set [2]; 0.227 ± 0.01 s⁻¹ in data set [3]; 0.0933 ± 0.0033 s⁻¹ in data set [4]; 0.07 ± 0.005 s⁻¹ in data set [5]; 0.22 ± 0.0067 s⁻¹ in data set [6].
